Target: CD3 on CD3+ Jurkat cells (human, UniProt P07766 23-207)
Test: FACS binding, Jurkat cells

Sequence of CD3 on CD3+ Jurkat cells (P07766 23-207): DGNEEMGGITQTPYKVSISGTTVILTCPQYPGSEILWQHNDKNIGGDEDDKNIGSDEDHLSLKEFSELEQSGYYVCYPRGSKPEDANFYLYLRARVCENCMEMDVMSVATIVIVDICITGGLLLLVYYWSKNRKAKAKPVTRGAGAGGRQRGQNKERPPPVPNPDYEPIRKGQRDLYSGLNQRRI

EC50: 26.5 nM
B1: m-13/CD3-v2 (antibody)
chain 1: QLQLQQSGTELVRPGSSVKISCKASGYAFSNYWMNWVKQRPGQGLEWIGQIYPGNGDTKYNGNFKGKATLTADKSSSTAYMQLSSLTSEDSADYFCARYYRGNCFDYWGQGTTLTVSS
chain 2: DIVLTQSPSSLTVTAGEKVTMSCKSSQSLLNSGNQKNYLTWYQQKPGQPPKLLIYWASTRDSGVPARFTGSGSGTDFTLTINSVQAEDLAVYYCQNAYTYPLTFGAGTKLEIK
chain 3: EVQLVESGGGLVKPGGSLKLSCAASGFTFSTYAMNWVRQAPGKGLEWVARIRSKYNNYATTYADSVKDRFTISRDDSKNTAYLQMNNLRTEDTAVYYCVRHGNWGNSYISYWAYWGQGTTVTVSS
chain 4: not shown

— patent US20240117035A1 (published 2024)
